The results in this text go back to article PMC5389574 (Nucleic Acids Research, 2016).

The test has as its target T1, recombinant Rpb4/Rpb7-6His (S. cerevisiae, UniProt P20433 1-221; P34087 1-171).
T1 sequence (looked up) 1: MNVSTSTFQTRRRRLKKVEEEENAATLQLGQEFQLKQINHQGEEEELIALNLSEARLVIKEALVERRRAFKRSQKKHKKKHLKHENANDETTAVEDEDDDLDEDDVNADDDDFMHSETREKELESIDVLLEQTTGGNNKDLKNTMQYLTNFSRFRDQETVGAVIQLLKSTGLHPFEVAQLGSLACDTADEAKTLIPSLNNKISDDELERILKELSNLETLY
T1 sequence (looked up) 2: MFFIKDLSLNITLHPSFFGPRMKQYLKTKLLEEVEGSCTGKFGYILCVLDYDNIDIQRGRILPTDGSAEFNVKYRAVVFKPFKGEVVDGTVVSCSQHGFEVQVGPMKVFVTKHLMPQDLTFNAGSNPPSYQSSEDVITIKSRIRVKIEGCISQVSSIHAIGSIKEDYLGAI
In words: pull-down.

B1: recombinant Sub1 (natural protein, S. cerevisiae, UniProt P54000 1-292, looked up)
chain: MSYYNRYRNKRRSDNGGGNLSNSNNNNGGMPSGLSASDAIFDLGKNKRVTVRQFRNINLIDIREYYLDSSTGEMKPGKKGISLTEDLYDELLKHRLNIDEALRRLGSKRPKTKMVRLLSDDEYEDDNNNDSTNNDKDKNGKDKNSPKKRREDKSKASNESHDLEPRSKKKKPAPPTLLPHEENIQNAEREANATLIIPGQAGRKQQEERKQKEKEEAEEAKAKAVAEQEKEAKAKEKIAEPEPEPVPTLQAKKEDIVSNINESKDANSSDEEFAQSLEAEMNKAEDDISEEE
For B1, the binding result is reported as “binds”.
